From patent EP2170953B1

Assays:
[1] = biological target: Aβ1-42 peptide, monomer-enriched preparation; assay: ELISA assay 1, Ab 1:1 of 0.5 µg/ml
[2] = biological target: Aβ1-42 peptide, oligomer-enriched preparation; assay: ELISA assay 1, Ab 1:1 of 0.5 µg/ml
[3] = biological target: Aβ1-42 peptide, monomer-enriched preparation; assay: ELISA assay 1, Ab 1:2 of 0.5 µg/ml
[4] = biological target: Aβ1-42 peptide, oligomer-enriched preparation; assay: ELISA assay 1, Ab 1:2 of 0.5 µg/ml
[5] = biological target: Aβ1-42 peptide, oligomer-enriched preparation; assay: ELISA assay 1, Ab 1:4 of 0.5 µg/ml
[6] = biological target: Aβ1-42 peptide, monomer-enriched preparation; assay: ELISA assay 1, Ab 1:8 of 0.5 µg/ml
[7] = biological target: Aβ1-42 peptide, oligomer-enriched preparation; assay: ELISA assay 1, Ab 1:8 of 0.5 µg/ml
[8] = biological target: Aβ1-42 peptide, monomer-enriched preparation; assay: ELISA assay 2, Ab 1:1 of 0.5 µg/ml
[9] = biological target: Aβ1-42 peptide, oligomer-enriched preparation; assay: ELISA assay 2, Ab 1:1 of 0.5 µg/ml
[10] = biological target: Aβ1-42 peptide, monomer-enriched preparation; assay: ELISA assay 2, Ab 1:2 of 0.5 µg/ml
[11] = biological target: Aβ1-42 peptide, oligomer-enriched preparation; assay: ELISA assay 2, Ab 1:2 of 0.5 µg/ml
[12] = biological target: Aβ1-42 peptide, monomer-enriched preparation; assay: ELISA assay 2, Ab 1:4 of 0.5 µg/ml
[13] = biological target: Aβ1-42 peptide, oligomer-enriched preparation; assay: ELISA assay 2, Ab 1:4 of 0.5 µg/ml
[14] = biological target: Aβ1-42 peptide, oligomer-enriched preparation; assay: ELISA assay 2, Ab 1:8 of 0.5 µg/ml
[15] = biological target: Aβ1-42 peptide, monomer-enriched preparation; assay: ELISA assay 3, Ab 1:1 of 0.5 µg/ml
[16] = biological target: Aβ1-42 peptide, oligomer-enriched preparation; assay: ELISA assay 3, Ab 1:1 of 0.5 µg/ml
[17] = biological target: Aβ1-42 peptide, monomer-enriched preparation; assay: ELISA assay 3, Ab 1:2 of 0.5 µg/ml
[18] = biological target: Aβ1-42 peptide, oligomer-enriched preparation; assay: ELISA assay 3, Ab 1:2 of 0.5 µg/ml
[19] = biological target: Aβ1-42 peptide, monomer-enriched preparation; assay: ELISA assay 3, Ab 1:4 of 0.5 µg/ml
[20] = biological target: Aβ1-42 peptide, oligomer-enriched preparation; assay: ELISA assay 3, Ab 1:4 of 0.5 µg/ml
[21] = biological target: Aβ1-42 peptide, oligomer-enriched preparation; assay: ELISA assay 3, Ab 1:8 of 0.5 µg/ml
[22] = biological target: Aβ1-42 peptide, monomer-enriched preparation; assay: ELISA assay 1, Ab 1:16 of 0.5 µg/ml
[23] = biological target: Aβ1-42 peptide, oligomer-enriched preparation; assay: ELISA assay 1, Ab 1:16 of 0.5 µg/ml
[24] = biological target: Aβ1-42 peptide, monomer-enriched preparation; assay: ELISA assay 1, Ab 1:32 of 0.5 µg/ml
[25] = biological target: Aβ1-42 peptide, oligomer-enriched preparation; assay: ELISA assay 1, Ab 1:32 of 0.5 µg/ml
[26] = biological target: Aβ1-42 peptide, monomer-enriched preparation; assay: ELISA assay 1, Ab 1:64 of 0.5 µg/ml
[27] = biological target: Aβ1-42 peptide, oligomer-enriched preparation; assay: ELISA assay 1, Ab 1:64 of 0.5 µg/ml
[28] = biological target: Aβ1-42 peptide, monomer-enriched preparation; assay: ELISA assay 2, Ab 1:16 of 0.5 µg/ml
[29] = biological target: Aβ1-42 peptide, oligomer-enriched preparation; assay: ELISA assay 2, Ab 1:16 of 0.5 µg/ml
[30] = biological target: Aβ1-42 peptide, monomer-enriched preparation; assay: ELISA assay 2, Ab 1:32 of 0.5 µg/ml
[31] = biological target: Aβ1-42 peptide, oligomer-enriched preparation; assay: ELISA assay 2, Ab 1:32 of 0.5 µg/ml
[32] = biological target: Aβ1-42 peptide, monomer-enriched preparation; assay: ELISA assay 2, Ab 1:64 of 0.5 µg/ml
[33] = biological target: Aβ1-42 peptide, oligomer-enriched preparation; assay: ELISA assay 2, Ab 1:64 of 0.5 µg/ml
[34] = biological target: Aβ1-42 peptide, monomer-enriched preparation; assay: ELISA assay 3, Ab 1:16 of 0.5 µg/ml
[35] = biological target: Aβ1-42 peptide, oligomer-enriched preparation; assay: ELISA assay 3, Ab 1:16 of 0.5 µg/ml
[36] = biological target: Aβ1-42 peptide, monomer-enriched preparation; assay: ELISA assay 3, Ab 1:32 of 0.5 µg/ml
[37] = biological target: Aβ1-42 peptide, oligomer-enriched preparation; assay: ELISA assay 3, Ab 1:32 of 0.5 µg/ml
[38] = biological target: Aβ1-42 peptide, monomer-enriched preparation; assay: ELISA assay 3, Ab 1:64 of 0.5 µg/ml
[39] = biological target: Aβ1-42 peptide, oligomer-enriched preparation; assay: ELISA assay 3, Ab 1:64 of 0.5 µg/ml
[40] = biological target: Aβ1-42 peptide, high molecular weight (HMW) proto-fibrillar (PF) oligomer enriched preparation (human); assay: ELISA on coated fraction, Ab 1 µg/ml
[41] = biological target: Aβ1-42 peptide, low molecular weight (LMW) monomer preparation (human); assay: ELISA on coated fraction, Ab 1 µg/ml
[42] = biological target: Aβ1-42 peptide, monomer-enriched preparation; assay: ELISA assay 1, Ab 1:128 of 0.5 µg/ml

Chain of Aβ1-42 peptide, monomer-enriched preparation (peptide, as listed by the source, form in doubt): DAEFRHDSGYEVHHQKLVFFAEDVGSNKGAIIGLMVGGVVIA
Chain of Aβ1-42 peptide, oligomer-enriched preparation (peptide, as listed by the source, form in doubt): as above
Chain of Aβ1-42 peptide, high molecular weight (HMW) proto-fibrillar (PF) oligomer enriched preparation (human) (peptide, as listed by the source, form in doubt): as above
Chain of Aβ1-42 peptide, low molecular weight (LMW) monomer preparation (human) (peptide, as listed by the source, form in doubt): as above

6E10 control antibody
O.D. [1]: 3.67 O.D.
O.D. [2]: 3.36 O.D.
O.D. [3]: 3.3 O.D.
O.D. [4]: 3.39 O.D.
O.D. [5]: 3.1 O.D.
O.D. [6]: 2.67 O.D.
O.D. [7]: 2.73 O.D.
O.D. [8]: 3.77 O.D.
O.D. [9]: 3.67 O.D.
O.D. [10]: 3.48 O.D.
O.D. [11]: 3.55 O.D.
O.D. [12]: 3.29 O.D.
O.D. [13]: 3.37 O.D.
O.D. [14]: 2.99 O.D.
O.D. [15]: 4.04 O.D.
O.D. [16]: 3.89 O.D.
O.D. [17]: 4 O.D.
O.D. [18]: 3.83 O.D.
O.D. [19]: 3.52 O.D.
O.D. [20]: 3.64 O.D.
O.D. [21]: 3.23 O.D.
O.D. [22]: 1.78 O.D.
O.D. [23]: 1.78 O.D.
O.D. [24]: 1.18 O.D.
O.D. [25]: 1.27 O.D.
O.D. [26]: 0.81 O.D.
O.D. [27]: 0.93 O.D.
O.D. [28]: 1.94 O.D.
O.D. [29]: 1.92 O.D.
O.D. [30]: 1.34 O.D.
O.D. [31]: 1.3 O.D.
O.D. [32]: 0.94 O.D.
O.D. [33]: 0.88 O.D.
O.D. [34]: 2.23 O.D.
O.D. [35]: 2.07 O.D.
O.D. [36]: 1.54 O.D.
O.D. [37]: 1.4 O.D.
O.D. [38]: 1.08 O.D.
O.D. [39]: 0.95 O.D.
O.D. [40]: 2.55 O.D.
O.D. [41]: 2.68 O.D.
O.D. [42]: 0.64 O.D.
